Values belong to the binder of their own block, whether it stands above or below them.
Legend:
[1] = target: M44-modified G NTAA target peptides (M44-G-P2-peptide); assay: encoding assay; P2 M;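 further: fraction of recording tags encoded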
[2] = target: M44-modified S NTAA target peptides; assay: encoding assay; P2 M
[3] = target: M44-modified Q NTAA target peptides; assay: encoding assay; P2 M;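 further: fraction of recording tags encoded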
[4] = target: M44-modified G NTAA target peptides (M44-G-P2-peptide); assay: encoding assay; P2 P;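 further: fraction of recording tags encoded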
[5] = target: M44-modified T NTAA target peptides; assay: encoding assay; P2 P;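 further: fraction of recording tags encoded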
[6] = target: M44-modified P NTAA target peptides; assay: encoding assay; P2 P;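 further: fraction of recording tags encoded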
[7] = target: M44-modified W NTAA target peptides; assay: encoding assay; P2 P;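 further: fraction of recording tags encoded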
[8] = target: M44-modified V NTAA target peptides; assay: encoding assay; P2 P;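 further: fraction of recording tags encoded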
[9] = target: M44-modified G NTAA target peptides (M44-G-P2-peptide); assay: encoding assay; P2 N;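 further: fraction of recording tags encoded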
[10] = target: M44-modified T NTAA target peptides; assay: encoding assay; P2 N;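 further: fraction of recording tags encoded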
[11] = target: M44-modified P NTAA target peptides; assay: encoding assay; P2 N;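 further: fraction of recording tags encoded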
[12] = target: M44-modified A NTAA target peptides (M44-A-P2-peptide); assay: encoding assay; P2 N;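 further: fraction of recording tags encoded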
[13] = target: M17-modified Y NTAA target peptides (M17-Y-P2-peptide); assay: encoding assay; P2 M;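 further: fraction of recording tags encoded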
[14] = target: M17-modified I NTAA target peptides; assay: encoding assay; P2 M;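 further: fraction of recording tags encoded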
[15] = target: M17-modified S NTAA target peptides; assay: encoding assay; P2 M;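 further: fraction of recording tags encoded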
[16] = target: M17-modified L NTAA target peptides; assay: encoding assay; P2 M;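 further: fraction of recording tags encoded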
[17] = target: M17-modified E NTAA target peptides; assay: encoding assay; P2 M;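 further: fraction of recording tags encoded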
[18] = target: M17-modified G NTAA target peptides; assay: encoding assay; P2 M;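 further: fraction of recording tags encoded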
[19] = target: M17-modified P NTAA target peptides; assay: encoding assay; P2 M;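 further: fraction of recording tags encoded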
[20] = target: M17-modified N NTAA target peptides; assay: encoding assay; P2 M;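 further: fraction of recording tags encoded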
[21] = target: M17-modified M NTAA target peptides; assay: encoding assay; P2 M;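 further: fraction of recording tags encoded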
[22] = target: M17-modified Y NTAA target peptides (M17-Y-P2-peptide); assay: encoding assay; P2 P;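 further: fraction of recording tags encoded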
[23] = target: M17-modified I NTAA target peptides; assay: encoding assay; P2 P;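 further: fraction of recording tags encoded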
[24] = target: M17-modified S NTAA target peptides; assay: encoding assay; P2 P;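 further: fraction of recording tags encoded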
[25] = target: M17-modified H NTAA target peptides; assay: encoding assay; P2 P;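 further: fraction of recording tags encoded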
[26] = target: M17-modified F NTAA target peptides; assay: encoding assay; P2 P;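 further: fraction of recording tags encoded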
[27] = target: M17-modified V NTAA target peptides; assay: encoding assay; P2 P;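 further: fraction of recording tags encoded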
[28] = target: M17-modified L NTAA target peptides; assay: encoding assay; P2 P;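 further: fraction of recording tags encoded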
[29] = target: M17-modified E NTAA target peptides; assay: encoding assay; P2 P;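 further: fraction of recording tags encoded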
[30] = target: M17-modified G NTAA target peptides; assay: encoding assay; P2 P;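 further: fraction of recording tags encoded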
[31] = target: M17-modified P NTAA target peptides; assay: encoding assay; P2 P;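 further: fraction of recording tags encoded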
[32] = target: M17-modified A NTAA target peptides; assay: encoding assay; P2 P;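 further: fraction of recording tags encoded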
[33] = target: M17-modified N NTAA target peptides; assay: encoding assay; P2 P;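 further: fraction of recording tags encoded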
[34] = target: M17-modified W NTAA target peptides; assay: encoding assay; P2 P;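 further: fraction of recording tags encoded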
[35] = target: M17-modified T NTAA target peptides; assay: encoding assay; P2 P;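 further: fraction of recording tags encoded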
[36] = target: M17-modified D NTAA target peptides; assay: encoding assay; P2 P;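 further: fraction of recording tags encoded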
[37] = target: M17-modified Q NTAA target peptides; assay: encoding assay; P2 P;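 further: fraction of recording tags encoded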
[38] = target: M17-modified M NTAA target peptides; assay: encoding assay; P2 P;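 further: fraction of recording tags encoded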
[39] = target: M17-modified Y NTAA target peptides (M17-Y-P2-peptide); assay: encoding assay; P2 N;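 further: fraction of recording tags encoded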
[40] = target: M17-modified I NTAA target peptides; assay: encoding assay; P2 N;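 further: fraction of recording tags encoded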
[41] = target: M17-modified S NTAA target peptides; assay: encoding assay; P2 N;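 further: fraction of recording tags encoded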
[42] = target: M17-modified H NTAA target peptides; assay: encoding assay; P2 N;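 further: fraction of recording tags encoded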
[43] = target: M17-modified F NTAA target peptides; assay: encoding assay; P2 N;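 further: fraction of recording tags encoded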
[44] = target: M17-modified V NTAA target peptides; assay: encoding assay; P2 N;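 further: fraction of recording tags encoded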
[45] = target: M17-modified L NTAA target peptides; assay: encoding assay; P2 N;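 further: fraction of recording tags encoded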
[46] = target: M17-modified E NTAA target peptides; assay: encoding assay; P2 N;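 further: fraction of recording tags encoded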
[47] = target: M17-modified G NTAA target peptides; assay: encoding assay; P2 N;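 further: fraction of recording tags encoded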
[48] = target: M17-modified P NTAA target peptides; assay: encoding assay; P2 N;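 further: fraction of recording tags encoded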
[49] = target: M17-modified A NTAA target peptides; assay: encoding assay; P2 N;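 further: fraction of recording tags encoded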
[50] = target: M17-modified N NTAA target peptides; assay: encoding assay; P2 N;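 further: fraction of recording tags encoded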
[51] = target: M17-modified W NTAA target peptides; assay: encoding assay; P2 N;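 further: fraction of recording tags encoded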
[52] = target: M17-modified T NTAA target peptides; assay: encoding assay; P2 N;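 further: fraction of recording tags encoded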
[53] = target: M17-modified Q NTAA target peptides; assay: encoding assay; P2 N;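 further: fraction of recording tags encoded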
[54] = target: M17-modified M NTAA target peptides; assay: encoding assay; P2 N;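 further: fraction of recording tags encoded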

B1: engineered M44-L binder (SEQ ID NO: 31) (designed binder, not shown: small tags and cut ends; large carriers)
chain: QDSTQNLIPAPPLISVPLQPGFWTERFQGRWFLVGFAGNAVQKERQSRLTMQSLILELQEDNSYNITAINVRGQGCRYIISTLVPSSRPGQFTLGNIHSYPQIQSLDVQVADTDYDQFAMVFLQGTSENKQYFEVALAGRTKGLSDELKERFVSFAKSLGLKDNNIVFSVPTDQCIDN
encoding yield [1]: 0.01
encoding yield [2]: 0.01
encoding yield [3]: 0.01
encoding yield [4]: 0.01
encoding yield [5]: 0.01
encoding yield [6]: 0.01
encoding yield [7]: 0.04
encoding yield [8]: 0.02
encoding yield [9]: 0.02
encoding yield [10]: 0.01
encoding yield [11]: 0.01
encoding yield [12]: 0.02

B2: engineered M44-A binder (SEQ ID NO: 42) (designed binder, not shown: small tags and cut ends; large carriers)
chain: QVSVQPNFQQDKFLGRWFVAGLASNSSWDREKVAALSGAKMVVAPATDGGLNVTRTMLRKNQCETYTGLLQPAGSLGSYSWRSPHPGSTGSESVVETDYDQYALVYGQGSKGPGEDLRAAALWSRTQTPRAELKEKFTAFSKAQGFTEDTIVFLPQTDKCMTEQ
encoding yield [1]: 0.04
encoding yield [2]: 0.04
encoding yield [3]: 0.01
encoding yield [4]: 0.01
encoding yield [5]: 0.01
encoding yield [6]: 0.01
encoding yield [7]: 0.01
encoding yield [8]: 0.01
encoding yield [9]: 0.03
encoding yield [10]: 0.02
encoding yield [11]: 0.02
encoding yield [12]: 0.1

The remaining lines, values ahead:

encoding yield [13]: 0.1
encoding yield [14]: 0.06
encoding yield [15]: 0.01
encoding yield [16]: 0.02
encoding yield [17]: 0.02
encoding yield [18]: 0.01
encoding yield [19]: 0.02
encoding yield [20]: 0.02
encoding yield [21]: 0.01
encoding yield [22]: 0.16
encoding yield [23]: 0.06
encoding yield [24]: 0.02
encoding yield [25]: 0.03
encoding yield [26]: 0.12
encoding yield [27]: 0.02
encoding yield [28]: 0.05
encoding yield [29]: 0.02
encoding yield [30]: 0.01
encoding yield [31]: 0.01
encoding yield [32]: 0.02
encoding yield [33]: 0.01
encoding yield [34]: 0.02
encoding yield [35]: 0.01
encoding yield [36]: 0.02
encoding yield [37]: 0.02
encoding yield [38]: 0.03
encoding yield [39]: 0.06
encoding yield [40]: 0.02
encoding yield [41]: 0.02
encoding yield [42]: 0.03
encoding yield [43]: 0.02
encoding yield [44]: 0.02
encoding yield [45]: 0.02
encoding yield [46]: 0.02
encoding yield [47]: 0.03
encoding yield [48]: 0.01
encoding yield [49]: 0.02
encoding yield [50]: 0.03
encoding yield [51]: 0.02
encoding yield [52]: 0.01
encoding yield [53]: 0.02
encoding yield [54]: 0.01
B3: engineered M17-Y binder (SEQ ID NO: 61) (designed binder, not shown: small tags and cut ends; large carriers)
chain: TVPDRSEIAGKWYVVALASNTEFYLREKDWVKSAMARISFLGEDELKVSSAVPSPNGCYKVERTWKKTSDDGEVYNSRAAKLKVEVLDTDYKSYAVIYATRVKDGRTDHQMILYSRSPEVSPAATAIFRKLAGERNYTDEMVAMLPRQEECTVDEV

encoding yield [13]: 0.23
encoding yield [14]: 0.1
encoding yield [15]: 0.01
encoding yield [16]: 0.04
encoding yield [17]: 0.03
encoding yield [18]: 0.02
encoding yield [19]: 0.03
encoding yield [20]: 0.02
encoding yield [21]: 0.02
encoding yield [22]: 0.28
encoding yield [23]: 0.07
encoding yield [24]: 0.04
encoding yield [25]: 0.04
encoding yield [26]: 0.12
encoding yield [27]: 0.03
encoding yield [28]: 0.08
encoding yield [29]: 0.02
encoding yield [30]: 0.02
encoding yield [31]: 0.01
encoding yield [32]: 0.02
encoding yield [33]: 0.02
encoding yield [34]: 0.11
encoding yield [35]: 0.02
encoding yield [36]: 0.03
encoding yield [37]: 0.02
encoding yield [38]: 0.03
encoding yield [39]: 0.15
encoding yield [40]: 0.03
encoding yield [41]: 0.02
encoding yield [42]: 0.03
encoding yield [43]: 0.01
encoding yield [44]: 0.03
encoding yield [45]: 0.03
encoding yield [46]: 0.03
encoding yield [47]: 0.03
encoding yield [48]: 0.02
encoding yield [49]: 0.02
encoding yield [50]: 0.04
encoding yield [51]: 0.02
encoding yield [52]: 0.01
encoding yield [53]: 0.02
encoding yield [54]: 0.02
B4: upgraded binder after additional maturation round (SEQ ID NO: 62) (designed binder, not shown: small tags and cut ends; large carriers)
chain: TVPDRSEIAGKWYVVALASNTEFYLRGKDRVKSAMVRISFQGEDELKVSSAVPSPNGCYKVERTWKKTSDDGEVYNSRAAKLKVEVLDTDYKSYAVIYATRVKDRRTDHQMILYSRSPDVSPAATAIFRKLAGERNYTDEMVAMLPRQEECTVDEV

— patent US20230220589A1
